The nature of the data set: soluble on expression in E. coli; label from the status in PepcDB or PDB records.
Turning to “MVDPQLDGPQLAALAAVVELGSFDAAAERLHVTPSAVSQRIKSLEQQVGQVLVVREKPCRATTAGIPLLRLAAQTALLESEALAEMGGNASLKRTRITIAVNADSMATWFSAVFDGLGDVLLDVRIEDQDHSARLLREGVAMGAVTTERNPVPGCRVHPLGEMRYLPVASRPFVQRHLSDGFTAAAAAKAPSLAWNRDDGLQDMLVRKAFRRAITRPTHFVPTTEGFTAAARAGLGWGMFPEKLAASPLADGSFVRVCDIHLDVPLYWQCWKLDSPIIARITDTVRAAASGLYRGQQRRRRPG”, the “soluble on expression in E. coli” value is on record as “soluble”.

As for “MVEELFYKKILKNLFSDPVQITLWNGETIQYGEGEPQFHVTFHKPLSKKEIAKDPSIAFGEAYMNGDLEIEGNLEKAIQSIYKRQDSFLGDSKLQYFKSKWNFSKQKNKDDIAHHYDIGNDFYKLWLDETMTYSCAYFQNEQDSLTTAQHNKVNHILKKLNLQKGDTLLDIGCGWGELITAAAKQYGVKAMGVTLSEEQYAKASERIKQEGLTDLVEVSLLDYRDIKNQKFDKIVSVGMIEHVGKDNITQYFETVNTLLNDGGISLLHCITSPANGGATNGWIEKYIFPGGYVPAVNELITNMTNEQFFIVDVESLRRHYGKTLQHWARNFENVMEEVRKTKDERFIRMWRLYLNACAASFFTGNIDLHQFVFTKGINDTIPMTRSYMYE”, the “soluble on expression in E. coli” value is given as “not soluble”. Then “MVEIKLENIVKKFGNFTALNNINLKIKDGEFMALLGPSGSGKSTLLYTIAGIYKPTSGKIYFDEKDVTELPPKDRNVGLVFQNWALYPHMTVYKNIAFPLELRKAPREEIDKKVREVAKMLHIDKLLNRYPWQLSGGQQQRVAIARALVKEPEVLLLDEPLSNLDALLRLEVRAELKRLQKELGITTVYVTHDQAEALAMADRIAVIREGEILQVGTPDEVYYKPKYKFVGGFLGNPPMNFVEAKVEDGKLVITEKSKLPIPKQYVEIVKETGITEVIIGFRPHDAEIVKGEGEGIVGEVYSFEPLGREQIVTVSVNDSIVKVFAPEGEHFSFGEKVTIKVKEELLVLFDKKTEKALEFSKL”, with “soluble”. “MVEKIWFENHPLKYLLWPLLWPLSVLFGAISRSKRQQFQTGRKQAYQAPVPVVVVGNITAGGNGKTPVVVWLVEQLQHLGYKPGVVSRGYGAKAPQYPLVLNDDTPTQHCGDEPKLIHRRTGAPVAVDPVRANAVKALVELDVDIIITDDGLQHYALERDVELVIVDGNRRFGNECLIPLGPLREGVERLQEVDFIITNGGLAHQGEISMSLAPSKAINLKTKQQVDVSELKALVAFAGIGHPPRFFNTLESMHADVKVTKGFADHQDFDQKELEALALQGANVIMTEKDAVKCSDYAQDNWWYLPVSAQLEPKDAERILNRIKEVKATYGSPSAAAALEHHHHHH”: the “soluble on expression in E. coli” value is “soluble”. For the sequence “MVELVISPSLTVNSDCLDKLKFNRADAAVWTLSDRQGITKSAPLRVSQLFSRSCPRVLPRQPSTAMAAYGQTQYSAGIQQATPYTAYPPPAQAYGIPSFSTSPTGQSPYTYQMHGTTGFYQGGNGLGNAAGFGSVHQDYPSYPGFPQSQYPQYYGSSYNPPYVPASSICPSPLSTSTYVLQEASHNVPNQSSESLAGEYNTHNGPSTPAKEGDTDRPHRASDGKLRGRSKRSSDPSPAGDNEIERVFVWDLDETIIIFHSLLTGTFASRYGKDTTTSVRIGLMMEEMIFNLADTHLFFNDLEDCDQIHVDDVSSDDNGQDLSTYNFSADGFHSSAPGANLCLGSGVHGGVDWMRKLAFRYRRVKEMYNTYKNNVGGLIGTPKRETWLQLRAELEALTDLWLTHSLKALNLINSRPNCVNVLVTTTQLIPALAKVLLYGLGSVFPIENIYSATKTGKESCFERIMQRFGRKAVYVVIGDGVEEEQGAKKHNMPFWRISCHADLEALRHALELEYL”, the “soluble on expression in E. coli” value was “not soluble”.

For the sequence “MVERYSLSPMKDLWTEEAKYRRWLEVELAVTRAYEELGMIPKGVTERIRNNAKIDVELFKKIEEKTNHDVVAFVEGIGSMIGEDSRFFHYGLTSSDVLDTANSLALVEAGKILLESLKEFCDVLWEVANRYKHTPTIGRTHGVHAEPTSFGLKVLGWYSEMKRNVQRLERAIEEVSYGKISGAVGNYANVPPEVEEKALSYLGLKPEPVSTQVVPRDRHAFYLSTLAIVAAGIERIAVEIRHLQRTEVLEVEEPFRKGQRGSSAMPHKKNPITCERLTGLSRMMRAYVDPSLENIALWHERDISHSSVERYVFPDATQTLYYMIVTATNVVRNMKVNEERMKKNIDLTKGLVFSQRVLLKLIEKGLTRKEAYDIVQRNALKTWNSEKHFLEYLLEDEEVKKLVTKEELEELFDISYYLKHVDHIFERFEKE”, the “soluble on expression in E. coli” value is listed as “soluble”.

“MVESGKAQMESFRIDNNGIQKKSRTKFIAGVGKSLRSAKNLTSKTVQTQFVAYPELAQLLPIFPAERLKKLILNGLDGQEYKQLIDLDQWKQARIFHGYAENLIIPIEKFFHFERFDVHLARFTEADALRLRAMIDRSAHFGFAGICCNYMNNSALKRIFNVEHENFYQTPDERSFDVQCRPGEISITKFGYTVE”: the “soluble on expression in E. coli” value is reported as “not soluble”. In the case of “MVGKRNLPVISRNFDLSPGVLRFSASRLRLKKGEKKPKFTKDTSAKLPKLQRNGTKFALGHSKTVTLRKTLTPGTVLIVLAGRHKGKRVVFLKQLPQSGLLLVTGPHKINGFPLRRIGQAFVIATSLKVNVSGVKIPEHINDEYFKRKSTAQKTGKNIFASGKTEYTVSEQRKKDIKTVDAPILAAIKKHPEHKFLFGYLGTRFSLGKNQYPHKMQF”, the “soluble on expression in E. coli” value is “not soluble”.

As for “MVHHSTKLPKNGGSEPKLVGAYLVSGSRSRIVDLINMIRELNAPILVFTRYPTFYQDLGENIKVIWITQASEDGIPPTKLHVIQDYAIKFAKENKYAVVIIDCVEYLLLYNEFASVFKFLASLKDYLIMMNSALVLAVDEKALDEKYYTLLLNEFEPLLEHHHHHH”, the “soluble on expression in E. coli” value is “soluble”. In the case of “MVIAYVDANLQTNRQTIYFDHDLNRNKYNTIQLKKLTMTQDSDSEYEIERIIDHVSFLEAYESFYGQNVKRFAAIFSEERFKRTKKPQLISNYFFLVKWLGYGNKEMTWEPESNIPDSVYLYEYKKLNNMVMNRMNLKVSLTFTSRRKGYTPPVILEELQERKPKPQFLNMSNMAITLNDNLNNGKFGIVPVPKYKKKFGQNVNYLKFGNEVYKMKNVSFKDSTNNDIDNRVQQHHHEDRSFLQSMIKHNNIVRMRDLFVSYNKLDETVNITSIYDWCHQNLRQQLNNEKVSWKKVCRDILNALSFIHPYGIHQGVSLDHIYYHKGGTYKLSHFNNFFFGKRIPAEKVKSDRVELAPRLYNLKFKLGRNSDIYALAIVLLQCHNKKFSFRVNPSSVMEIEEDIAKGMSAFENKDDRHFLKSLLRARLHVYHGSGHYRFTSSSLLHHPVLQEPTARSVECFYFHSMLASPMKEIIHYHANDKISDVLQRFISLYHTSQEAEDKKYIMMFTKDTSSCDSVVLLNSLENFERVVDIDLTIMKNTLLIAPIILPSPENENCQKFLIIYEQELGGCPIVIETPEVNAAKFAKQLKEYSVSHEYRNRRLGLFPKLPGGDQQENGGLPEFSHHVWQMQLESNDDTVIKNRFDIASEIEMPLSGEMLEWDDVAGIANYGEILRNNSDNTTSRRKRETCSSDELDEAHAKREKVD”, the “soluble on expression in E. coli” value is “not soluble”.

As for “MVKETKFYDILGVPVTATDVEIKKAYRKCALKYHPDKNPSEEAAEKFKEASAAYEILSDPEKRDIYDQFGEDGLSGAGGAGGFPGGGFGFGDDIFSQFFGAGGAQRPRGPQRGKDIKHEISASLEELYKGRTAKLALNKQILCKECEGRGGKKGAVKKCTSCNGQGIKFVTRQMGPMIQRFQTECDVCHGTGDIIDPKDRCKSCNGKKVENERKILEVHVEPGMKDGQRIVFKGEADQAPDVIPGDVVFIVSERPHKSFKRDGDDLVYEAEIDLLTAIAGGEFALEHVSGDWLKVGIVPGEVIAPGMRKVIEGKGMPIPKYGGYGNLIIKFTIKFPENHFTSEENLKKLEEILPPRIVPAIPKKATVDECVLADFDPAKYNRTRASRGGANYDSDEEEQGGEGVQCASQ”, the “soluble on expression in E. coli” value is given as “not soluble”. “MVKGPGLYTEIGKKARDLLYKDHNSDQKFSITTFSPAGVAITSTGTKKGDLLLGDVAFQSRRKNITTDLKVCTDSTFLITATVDEAAPGLRSIFSFKVPDQNSGKVELQYLHEYAGISTSMGLTQNPTVNFSGVIGSNVLAVGTDVSFDTKSGNFTKINAGLSFTKEDLIASLTVNDKGDLLNASYYHIVNPLFNTAVGAEVSHKLSSKDSTITVGTQHSLDPLTSVKARVNSAGIASALIQHEWKPKSFFTISGEVDTKSIDKSAKVGLALALKP”: the “soluble on expression in E. coli” value is reported as “soluble”.

Turning to “MVLAVKVQIKEGEKVRRKLIELGALNREYKIKREEGFLLIPVKFPVEGFEVVEVELERVETRPNSYKDVVNIPRELRKFLPSSFDIIGNIAIIEIPSELQNYSNEIGGAIIRVHKSVKAVYMKGGSVEGEYRVRNLIHIAGEKITETIHRENGVRLKLDITKVYFSPRLATERMRVFKMAREGEIVFDMFAGVGPFSILLAKKARMVFACDINPWAIKYLEENIKLNKVKNIIPILSDVTKVCVKADRIIMNLPKYASRFLEHAMRCVNNGGIIHYYGFGPEKDPYGWHVKRINEVAGRLGVKVEILGKRIIRNYAPRQYNIAIDFRVSF”, the “soluble on expression in E. coli” value is “soluble”. Then “MVLFSEDHIQETRRRGRIEVICGSMFSGKTEELIRRMKRAKFARQRVEIFKPAIDTRYSEEDVVSHDSHSIASTPIDSSASILLFTSEIDVVGIDEAQFFDDGLIDVCRQLANNGIRVIIAGLDMDFKGNPFGPMPQLCAIADEVSKVHAICVKCGDLASFSHRTVKNDKQVLLGETAEYEPLCRECYLRARGEDGQKI”, with “not soluble”.

As to “MVLGTVLLPPNSYGRDQDTSLCCLCTEASESALPDLTEALHRPYGCDVEPQALNEAIRWSSKENLLGATESDPNLFVALYDFVASGDNTLSITKGEKLRVLGYNQNGEWSEVRSKNGQGWVPSNYITPVNSLEKHSWYHGPVSRSAAEYLLSSLINGSFLVRESESSPGQLSISLRYEGRVYHYRINTTADGKVYVTAESRFSTLAELVHHHSTVADGLVTTLHYPAPKCNKPTVYGVSPIHDKWEMERTDITMKHKLGGGQYGEVYVGVWKKYSLTVAVKTLKEDTMEVEEFLKEAAVMKEIKHPNLVQLLGVCTLEPPFYIVTEYMPYGNLLDYLRECNREEVTAVVLLYMATQISSAMEYLEKKNFIHRDLAARNCLVGENHVVKVADFGLSRLMTGDTYTAHAGAKFPIKWTAPESLAYNTFSIKSDVWGKVERDFFLCHFIFFFINALIL”, the “soluble on expression in E. coli” value was “soluble”. The result for “MVLLVNIDDNEKWDNTVKGFENFDVYYLSGYVKAFHAHGDGEPKLFFYEDSNIKAINVFMKRDIEKDQNFSGKIPPNTFYDAATPYGYGGFLIEGNVTDESLRTLEKEYSELCLNEGIISEFVRFHPVINNSGTVSSIYDILELGRTVTIELDSREKVWEGFAGNNRNKVRKAKKSGVEIFWGRSPKLFDTFIPMYNETMDNDGASGYYYFKKDFYNSILEDLKYNSLIFYAVFEDRIISMSIILFANKQMHYHLSATDREYRNLAPTNLLLYEAACWGIENGYKTFHLGGGLGSREDSLYQFKKGFNKNSSTYFCIGKKIFDKEKYDELIKIRKQDPYFDENKLFFPLYRG” reads “not soluble”. Consider “MVLPKKEFVLSHTFTDVSKMEKDISVFSPGEEHFNVSWNMSISCEGDHLGVFLHCHKSRGKETMWTIDTEHQFTLKTSSGKAYREDDNFNFQFSNAHSYGNGTTEFISWNKLIKDYLIDDVITVEAAVKIIKTTGISKKALKGFEKSNEEFSDVVLAVGDKEFFVLKQFLAYHSSYFKSLLLGKFAESDQKEVTLQDIDPTDFQNLLEVLYGEPAIDDETIDGILHLAHMYDMSVPLRKCEEFLINESEKSMKDQLKIAKQYQLEKLKKACLLKINTVDEIKAAVAGKLSDMDPTVVAALF”, for which the “soluble on expression in E. coli” value is given as “not soluble”. Consider “MVLRKLSTYRQKRDFEKTPEPSGEAAVASSKQRRFVIQKHDASRLHYDFRLEFDGVFKSWAVTKGPSLDPHDKRLAVEVEDHPLDYGDFEGTIPEGQYGGGTVMLWDRGTWEADDPERGFKKGDLKFTLHGEKLHGSWVLVRMRNDRDGGKRTNWLLIKHRDEYAREGEDILAEDKSVASGRAMAQILEHHHHHH”, for which the “soluble on expression in E. coli” value is recorded as “soluble”.

The record behind these values is the DeepSol protein solubility set.
